Measurements as given in patent US7670806B2, “ADP-ribosyl acceptor hydrolase 3 (ARH3) polypeptides and methods of use” (The United States of America as represented by the …, priority 2005, dated 2010).

Columns and labels:
[1] = Poly(ADP-ribose) hydrolysis (autoradiography, high resolution PAGE, HPLC); type: biochemical; conditions: for Release of [14C]ADP-ribose from [14C]poly(ADP-ribose)PARP relative to wild-type ARH3: 50 nM human ARH3 (wild-type or mutant), ~2 μM ADP-ribose, HPLC C18; for Poly(ADP-ribose) hydrolysis (in words): [32P]poly(ADP-ribose) or poly(ADP-ribose)PARP, 37° C., autoradiography / PAGE / HPLC
Procedure: Poly(ADP-ribose) hydrolysis by autoradiography. [^32P]poly(ADP-ribose)PARP (500 ng of PARP with poly(ADP-ribose) was incubated (37° C., 2 h) with 2 μM ARH in 25 μl of 50 mM potassium phosphate buffer, pH 7.5, with or without 10 mM MgCl2 and/or 5 mM DTT. Reactions were stopped by adding 6 μl of 5× Laemmli buffer. Samples (20 μl) of proteins were separated by SDS-PAGE in 4-20% gels and transferred to nitrocellulose membranes that were exposed to X-ray film (Kodak) for 10 h.
Hydrolysis of poly(ADP-ribose) by PARG and ARH3. Purified [^32P] poly(ADP-ribose) (5.5×10^5 cpm, ˜300 nM ADP-ribose) was incubated for the indicated time at 37° C. in 25 μl of 50 mM potassium phosphate, pH 7.5, containing 10 mM MgCl2 and 5 mM DTT with enzyme or other additions as indicated and terminated by addition of 25 μl of 2× electrophoresis buffer (Invitrogen). [^32P]AMP was generated by incubation (37° C., 3 h) of 10 μM [^32P] NAD (10 μCi/reaction) with pyrophosphatase (40 units/mg from SIGMA, 1 mg/ml) in 25 μl of 50 mM KPO4, pH 7.5, and 10 mM MgCl2. [^32P] ADP-ribose was generated in a 25 μl mixture containing 50 mM KPO4, pH 7.5, 25 μg of activated CTA, 10 μM [^32P] NAD (10 μCi/reaction), 10 mM MgCl2, and 5 mM DTT, which was incubated at 30° C. overnight. [^32P] phosphoribosyl-AMP was generated by incubation (37° C., 3 h) of [^32P]poly(ADP-ribose) (5.5×10^5 cpm, ˜300 nM ADP-ribose) with Crotalus adamanteus phosphodiesterase (10 mU/reaction), 25 μl of 50 mM KPO4, pH 7.5, 10 mM MgCl2, and 5 mM DTT. Identities of AMP and ADP-ribose standards were confirmed by HPLC on C18 and SAX columns respectively.
High resolution Polyacrylamide Gel Electrophoresis (PAGE). Polyacrylamide (20%) gels (20×20×0.15 cm) containing polyacrylamide and bis(acrylamide), in a ratio of 19:1, 100 mM Tris-borate, pH 8.3, 2 mM EDTA, 4.4 mM ammonium persulfate, and 3.4 mM TEMED with electrophoresis carried out for 2 h at 400V with 50 mM Tris-borate, pH 8.3, 1 mM EDTA, before application of samples (15 μl) were used for analysis of poly(ADP-ribose) degradation. Subsequent electrophoresis at 400V was stopped when bromophenol blue (BPB) had moved 9 cm from the origin. Gels were exposed to X-ray films (Kodak).
HPLC analysis. HPLC, Hewlett-Packard series 1100 equipped with a diode-array spectrophotometric detector set at 254 nm, was used for separation of reaction products. For anion exchange perfusion chromatography, Zorbax SAX column (4.6×250 mm; DuPont, Wilmington Del.) was washed with 20 mM potassium phosphate, pH 4.5, for 30 min, followed by a linear gradient of 0-1M NaCl in the same buffer for 10 min (30-40 min), then same buffer with 1M NaCl for 10 min (40-50 min) at a flow rate of 1 ml/min. Nicotinamide was eluted at 3 min, NAD at 10 min, and ADP-ribose at 40 min. For reverse phase, Discovery C18 column (4.6×250 mm; SUPELCO, Bellefonte Pa.) was used. Samples were separated isocratically with 100 mM potassium phosphate, pH 6.0 containing 7% methanol at a same flow rate of 1 ml/min. ADP-ribose was eluted at 6 min, NAD at 8 min, nicotinamide 9 min.
Poly(ADP-ribose)PARP was used as substrate to assay potential poly(ADP-ribose) hydrolase activities of recombinant ARH1, 2 or 3. Products were identified by autoradiography and HPLC. Fractions (1 ml) were collected for liquid scintillation counting to quantify [^14C]ADP-ribose, which was eluted in fractions from 34 min to 43 min. Because ARH1 activity may require both DTT and Mg^2+, depending on species (Takada et al. (1993) J. Biol. Chem. 268:17837-17843; Moss et al. (1992) J. Biol. Chem. 267:10481-10488), these reactions were performed with or without 10 mM MgCl2, and/or 5 mM DTT. […] Degradation of [^32P]poly(ADP-ribose) by ARH3 was enhanced by 10 mM MgCl2 (FIG. 4A). Data were similar with mouse ARH3.
Samples of [^14C] ADP-ribosylated PARP (250 ng, 15,000 cpm, ˜850 nM ADP-ribose) were incubated at 37° C. (total volume, 100 μl) with human ARH3 as indicated. […]

[2] = Hydrolysis of O-acetyl-[14C]ADP-ribose by ARH proteins / PARG (RP-HPLC); type: biochemical; conditions: 1.5 pmol wild type or mutant human ARH3 or 20 mU PARG, 2 h at 30° C.; mouse ARH1, 2, 3
Procedure: FIG. 13A is a graph illustrating the results from incubation of 1.5 pmol of mouse ARH3 with or without 5 mM DTT and/or 10 mM MgCl2 as described in FIG. 11B with incubation for 1 h at 30° C. FIG. 13B is a graph illustrating the results from incubation of 1.5 pmol of wild type or mutant human (D77-78) ARH3 or 20 mU of PARG for 2 h at 30° C. *D77,78, assays incubated with 15 pmol of mutant human ARH3 (D77, D78).
FIG. 14A is a graph of the results from incubation with the indicated amount of mouse ARH1, 2, or 3 for 2 h at 30° C. FIG. 14B is a graph of the results from incubation with 230 pmol of mouse ARH1 at 30° C. for the indicated time.
Mouse ARH3 (2 pmol) and 2.5 μM O-acetyl-[^14C]ADP-ribose (5,000 cpm) in 200 μl of buffer containing 50 mM potassium phosphate (pH 7.0), 10 mM MgCl2 and 5 mM DTT were incubated for 2 h at 30° C., before separation of substrate and products using RP-HPLC as described below.
Hydrolysis of O-acetyl-[^14C]ADP-ribose catalyzed by ARH3. Assays containing the indicated concentration of O-acetyl-[^14C]-ADP-ribose (0.1 to 2 nmol, 1,000 to 20,000 cpm) and 1.5 pmol of ARH3 in 200 μl of buffer (50 mM KPO4 (pH 7.0), 10 mM MgCl2, 5 mM DTT) were incubated at 30° C. for 20 min. Substrate and products were separated using RP-HPLC. Amounts of product were corrected for ADP-ribose produced in the absence of ARH3 before calculation of hydrolysis rates.
Because O-acetyl-ADP-ribose was known to be hydrolyzed at alkaline pH Tanny and Moazed (2001), Proc Natl Acad Sci USA. 98(2):415-20, Epub Dec. 26, 2000), it was generated at pH 7.0 in the presence of [^14C-adenine] β-NAD, Sir2, and acetylated histone H3 peptide (FIG. 11A), and the products of Sir2 and ARH3 were analyzed using reverse-phase HPLC at the same pH (FIGS. 11A,B). The products of the ARH3-catalyzed reaction were also analyzed by high resolution-polyacrylamide gel electrophoresis (FIG. 11C). O-acetyl-[^14C]ADP-ribose hydrolase activity was time and ARH3 dependent (FIG. 12) and essentially completely dependent on Mg^2+ (FIG. 13A).
O-acetyl-ADP-ribose hydrolysis by ARH1 was time and ARH1 dependent (FIG. 14b).

Molecule | Release of [14C]ADP-ribose from [14C]poly(ADP-ribose)PARP relative to wild-type ARH3 [1] | Poly(ADP-ribose) hydrolysis (in words) [1] | O-acetyl-ADP-ribose hydrolysis (in words) [2]
ARH3 (E261Q/E262Q): human ARH3 mutant E261Q/E262Q (SEQ ID NO: 3) (protein, listed as Homo sapiens) MAAAAMAAAAGGGAGAARSLSRFRGCLAGALLGDCVGSFYEAHDTVDLTSVLRHVQSLEPDPGTPGSERTEALYYTDDTAMARALVQSLLAKEAFDEVDMAHRFAQEYKKDPDRGYGAGVVTVFKKLLNPKCRDVFEPARAQFNGKGSYGNGGAMRVAGISLAYSSVQDVQKFARLSAQLTHASSLGYNGAILQALAVHLALQGESSSEHFLKQLLGHMEDLEGDAQSVLDARELGMEERPYSSRLKKIGELLDQASVTRQQVVSELGNGIAAFESVPTAIYCFLRCMEPDPEIPSAFNSLQRTLIYSISLGGDTDTIATMAGAIAGAYYGMDQVPESWQQSCEGYEETDILAQSLHRVFQKS | ~98% | catalytic activities similar to that of the wild-type enzyme | rate similar to wild type
ARH3 (E238Q/E239Q): human ARH3 mutant E238Q/E239Q (SEQ ID NO: 4) (protein, listed as Homo sapiens) MAAAAMAAAAGGGAGAARSLSRFRGCLAGALLGDCVGSFYEAHDTVDLTSVLRHVQSLEPDPGTPGSERTEALYYTDDTAMARALVQSLLAKEAFDEVDMAHRFAQEYKKDPDRGYGAGVVTVFKKLLNPKCRDVFEPARAQFNGKGSYGNGGAMRVAGISLAYSSVQDVQKFARLSAQLTHASSLGYNGAILQALAVHLALQGESSSEHFLKQLLGHMEDLEGDAQSVLDARELGMQQRPYSSRLKKIGELLDQASVTREEVVSELGNGIAAFESVPTAIYCFLRCMEPDPEIPSAFNSLQRTLIYSISLGGDTDTIATMAGAIAGAYYGMDQVPESWQQSCEGYEETDILAQSLHRVFQKS | ~97% | catalytic activities similar to that of the wild-type enzyme | rate similar to wild type
mouse ARH3: murine ARH3 amino acid sequence SEQ ID NO: 6 (protein, listed as Mus musculus) MAVAAAAAATAMSAAGGGGASAARSISRFRGCLAGALLGDCVGAVYEAHDTVSLASVLSHVESLEPDPGTPGSARTETLYYTDDTAMTRALVQSLLAKEAFDEVDMAHRFAQEYKKDPDRGYGAGVITVFKKLLNPKCRDVYEPARAQFNGKGSYGNGGAMRVAGISLAYSSVQDVQKFARLSAQLTHASSLGYNGAILQALAVHLALQGVSSSEHFLEQLLGHMEELEGDAQSVLDAKELGMEERPYSSRLKKVGELLDQDVVSREEVVSELGNGIAAFESVPTAIYCFLRCMEPHPEIPSTFNSLQRTLIYSISLGGDTDTIATMAGAIAGAYYGMEQVPESWQQSCEGFEETDVLAQSLHRVFQESS | – | similar | –
ARH2: recombinant mouse or human ARH2, structurally related 39-kDa ADP-ribose-binding protein (protein, listed as Homo sapiens) MEKFKAAMLLGSVGDALGYRNVCKENSTVGMKIQEELQRSGGLDHLVLSPGEWPVSDNTIMHIATAEALTTDYWCLDDLYREMVRCYVEIVEKLPERRPDPATIEGCAQLKPNNYLLAWHTPFNEKGSGFGAATKAMCIGLRYWKPERLETLIEVSVECGRMTHNHPTGFLGSLCTALFVSFAAQGKPLVQWGRDMLRAVPLAEEYCRKTIRHTAEYQEHWFYFEAKWQFYLEERKISKDSENKAIFPDNYDAEEREKTYRKWSSEGRGGRRGHDAPMIAYDALLAAGNSWTELCHRAMFHGGESAATGTIAGCLFGLLYGLDLVPKGLYQDLEDKEKLEDLGAALYRLSTEEK | – | did not | appeared to be inactive
